In patent publication US20090062512A1, “Comparative ligand mapping from MHC class I positive cells” (priority 2000, published 2009):

Key:
Type in all cases: cell-based
[1] = biological target: A*0201 class I MHC molecules in cells infected with the West Nile virus (Homo sapiens, UniProt P04439, D140Y/D185E/D98H/E176V/E277Q/G131W/G231S/I119V/I121R/I166T/I218V/L300P/L318F/N151K/N90K/P208A/P217A/Q86G/Q94H/R138H/R169H/T345S)
[2] = biological target: A*0201 class I MHC molecules in cells infected with the PR8 strain of influenza A virus (Homo sapiens, UniProt P04439, D140Y/D185E/D98H/E176V/E277Q/G131W/G231S/I119V/I121R/I166T/I218V/L300P/L318F/N151K/N90K/P208A/P217A/Q86G/Q94H/R138H/R169H/T345S)
[3] = biological target: sHLA-A*0201 from MCF-7, MDA-MB-231, BT-20 and MCF10A (Homo sapiens, UniProt P04439, D140Y/D185E/D98H/E176V/E277Q/G131W/G231S/I119V/I121R/I166T/I218V/L300P/L318F/N151K/N90K/P208A/P217A/Q86G/Q94H/R138H/R169H/T345S); assay: MS comparative analysis of sHLA-A*0201 peptides, breast cancer cell lines vs nontumorigenic MCF10A; details: for FOLD INCREASE BT-20 over MCF10A / FOLD INCREASE MCF-7 over MCF10A / FOLD INCREASE MDA-MB-231 over MCF10A: peptide epitope presented on sHLA-A*0201; for FOLD INCREASE BT-20 over MCF10A: BT-20 vs nontumorigenic MCF10A; for FOLD INCREASE MCF-7 over MCF10A: MCF-7 vs nontumorigenic MCF10A; for FOLD INCREASE MDA-MB-231 over MCF10A: MDA-MB-231 vs nontumorigenic MCF10A

Sequence	Fold Increase [1]	other results
NLMHISYE	Unique	–
YTMDGEYRL	Unique	–
SVGGVFTSV	Unique	–
ATWAENIQV	Unique	–
RLDDDGNFQL	Unique	–
SLFGQRIEN	Unique	–
SLLEKSLGL (listed as Homo sapiens)	–	Fold Increase [2]: 1.64; FOLD INCREASE BT-20 over MCF10A [3]: None; FOLD INCREASE MCF-7 over MCF10A [3]: 7.9; FOLD INCREASE MDA-MB-231 over MCF10A [3]: 7.4
VLDELKVA	Unique	–
GLIEKNIEL (listed as Homo sapiens)	–	Fold Increase [2]: 1.58; presentation by HLA A*0201 of tumorigenic vs nontumorigenic cell lines ([3]; MCF-7, MDA-MB-231, BT-20 vs MCF10A): shared by all 4 cell lines
FLKEPALNEA	Unique	–
LDQSVTHL	Unique	–
LLDVPTAA	Unique	–
TLYEAVREV	–	FOLD INCREASE BT-20 over MCF10A [3]: 7.9; FOLD INCREASE MCF-7 over MCF10A [3]: None; FOLD INCREASE MDA-MB-231 over MCF10A [3]: 2.3
KIVVVTAGV	Unique	–
